Molecular target: T1, recombinant human Rad17 protein tagged with a Flag epitope at its N terminus, purified from baculovirus infected insect cells
T1 chain: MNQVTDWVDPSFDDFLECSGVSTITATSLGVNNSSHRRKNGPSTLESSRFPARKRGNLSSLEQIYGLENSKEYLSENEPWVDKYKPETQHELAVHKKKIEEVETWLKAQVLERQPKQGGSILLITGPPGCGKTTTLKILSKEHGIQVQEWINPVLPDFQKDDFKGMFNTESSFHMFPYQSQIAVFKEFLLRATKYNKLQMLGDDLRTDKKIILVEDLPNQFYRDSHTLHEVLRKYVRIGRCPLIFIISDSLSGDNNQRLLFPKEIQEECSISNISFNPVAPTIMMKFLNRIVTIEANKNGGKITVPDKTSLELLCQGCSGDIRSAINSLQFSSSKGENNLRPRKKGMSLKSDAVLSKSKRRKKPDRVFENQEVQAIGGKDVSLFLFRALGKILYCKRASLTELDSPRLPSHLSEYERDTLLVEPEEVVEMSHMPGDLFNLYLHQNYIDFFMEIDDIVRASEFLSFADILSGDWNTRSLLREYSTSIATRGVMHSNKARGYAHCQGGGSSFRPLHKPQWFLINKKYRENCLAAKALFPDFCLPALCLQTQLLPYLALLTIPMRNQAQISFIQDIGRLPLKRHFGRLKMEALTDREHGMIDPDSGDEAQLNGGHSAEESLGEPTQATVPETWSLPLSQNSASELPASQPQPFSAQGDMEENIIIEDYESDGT

B1: ATR-ATRIP complex reconstituted in vitro from purified ATR and purified ATRIP (protein)
chain 1: not shown
chain 2: MAGTSAPGSKRRSEPPAPRPGPPPGTGHPPSKRARGFSAAAAPDPDDPFGAHGDFTADDLEELDTLASQALSQCPAAARDVSSDHKVHRLLDGMSKNPSGKNRETVPIKDNFELEVLQAQYKELKEKMKVMEEEVLIKNGEIKILRDSLHQTESVLEEQRRSHFLLEQEKTQALSDKEKEFSKKLQSLQSELQFKDAEMNELRTKLQTSERANKLAAPSVSHVSPRKNPSVVIKPEACSPQFGKTSFPTKESFSANMSLPHPCQTESGYKPLVGREDSKPHSLRGDSIKQEEAQKSFVDSWRQRSNTQGSILINLLLKQPLIPGSSLSLCHLLSSSSESPAGTPLQPPGFGSTLAGMSGLRTTGSYDGSFSLSALREAQNLAFTGLNLVARNECSRDGDPAEGGRRAFPLCQLPGAVHFLPLVQFFIGLHCQALQDLAAAKRSGAPGDSPTHSSCVSSGVETNPEDSVCILEGFSVTALSILQHLVCHSGAVVSLLLSGVGADSAAGEGNRSLVHRLSDGDMTSALRGVADDQGQHPLLKMLLHLLAFSSAATGHLQASVLTQCLKVLVKLAENTSCDFLPRFQCVFQVLPKCLSPETPLPSVLLAVELLSLLADHDQLAPQLCSHSEGCLLLLLYMYITSRPDRVALETQWLQLEQEVVWLLAKLGVQSPLPPVTGSNCQCNVEVVRALTVMLHRQWLTVRRAGGPPRTDQQRRTVRCLRDTVLLLHGLSQKDKLFMMHCVEVLHQFDQVMPGVSMLIRGLPDVTDCEEAALDDLCAAETDVEDPEVECG
phosphorylated Rad17 on DNA (Ser635P): human replication protein A (RPA) stimulates the phosphorylation of Rad17 by the ATR-ATRIP complex

Reference: patent publication US20030165934
